# Columns and labels:
# [1] = tested on: blood-brain barrier (BBB); experiment: BBB pharmacokinetic transport of 125I-insulin, multiple-time regression analysis (Ki, Vi); format: in vivo, mouse (human E3- and E4-targeted replacement mice); conditions: for Insulin transport rate Ki / Reversible vascular binding (Vi): n = 7-10 mice/group; for Ki (unidirectional influx from blood to brain) / Vi (reversible vascular binding): whole brain; for Ki (unidirectional influx from blood to brain): multiple-time regression, ± SE
# Procedure: Mice were anesthetized with an intraperitoneal injection of 0.1 mL 40% urethane to minimize pain and distress. […] We correct for the exact amount of radioactivity injected based on serum levels. […] Blood from the left carotid artery was collected between 0.5–10 min after intravenous injection. Mice were immediately decapitated and their whole brains quickly removed and weighed. The arterial blood was centrifuged at 5400g for 10 min at 4°C and serum collected. The brains were dissected into regions according to the method of [27] and weighed. The levels of radioactivity in serum (50 μL) and brain regions were counted in a gamma counter (Wizard2, Perkin Elmer, Waltham, MA). […] Expt was calculated from the formula: Exposuretime=∫0tCp(t)dt/Cp(t) (1) where Cp is the level of radioactivity (cpm) in serum at time (t). Expt corrects for the clearance of peptide from the blood. […] The influx of insulin was calculated by multiple-time regression analysis as described by Patlak, Blasberg, and Fenstermacher: Am/Cpt=Ki(∫0tCp(t)dt/Cp(t))+Vi (2) where Am is level of radioactivity (cpm) per g of brain tissue at time t, Cpt is the level of radioactivity (cpm) per mL arterial serum at time t, Ki (μL/g-min) is the unidirectional solute influx from blood to brain, and Vi (μL/g) is the level of rapid and reversible binding for the brain vasculature. The brain/serum (B/S) ratios for insulin were corrected for vascular space by subtracting the corresponding ratio for albumin, yielding a delta B/S ratio. The linear portion of the relation between the delta B/S ratio versus Expt was used to calculate the Ki (μL/g-min) with its standard error term, and the y-intercept determined as representation of the Vi (μL/g) for each brain region. For whole brain, the weights and cpm of all individual brain regions except for the olfactory bulb were summed to calculate the B/S ratio. […] All anesthetized mice were killed by decapitation at the end of the study.
# Regression analysis and other statistical analyses were performed with the use of Prism 8.0 (GraphPad Software Inc., San Diego, CA, USA). Brain weight means are reported with their standard error terms and compared by two-way analysis of variance (ANOVA) followed by Sidak’s post hoc test to determine differences due to genotype or sex. […] For pharmacokinetic studies (multiple-time regression analysis), the slope of the linear regression lines (Ki), reported with their correlation coefficients (r), and y-intercepts (Vi) were compared statistically with the Prism 8.0 software package, as described.
# [2] = set-up: species or system mouse (human E3- and E4-targeted replacement mice); conditions: in vivo
# Procedure: Mice were anesthetized with an intraperitoneal injection of 0.1 mL 40% urethane to minimize pain and distress. […] We correct for the exact amount of radioactivity injected based on serum levels. […] Blood from the left carotid artery was collected between 0.5–10 min after intravenous injection. Mice were immediately decapitated and their whole brains quickly removed and weighed. The arterial blood was centrifuged at 5400g for 10 min at 4°C and serum collected. The brains were dissected into regions according to the method of [27] and weighed. The levels of radioactivity in serum (50 μL) and brain regions were counted in a gamma counter (Wizard2, Perkin Elmer, Waltham, MA). […] Expt was calculated from the formula: Exposuretime=∫0tCp(t)dt/Cp(t) (1) where Cp is the level of radioactivity (cpm) in serum at time (t). Expt corrects for the clearance of peptide from the blood. […] The influx of insulin was calculated by multiple-time regression analysis as described by Patlak, Blasberg, and Fenstermacher: Am/Cpt=Ki(∫0tCp(t)dt/Cp(t))+Vi (2) where Am is level of radioactivity (cpm) per g of brain tissue at time t, Cpt is the level of radioactivity (cpm) per mL arterial serum at time t, Ki (μL/g-min) is the unidirectional solute influx from blood to brain, and Vi (μL/g) is the level of rapid and reversible binding for the brain vasculature. […]
# [3] = tested on: blood-brain barrier (BBB); conditions: in vivo; cited from earlier work
# Description: Our studies are designed to investigate the transfer of human ^125I-insulin from the periphery to the CNS. Rat and human insulin are transported across the BBB at similar rates and are both saturable by excess respective peptide. […] We used the well-described multiple-time regression analysis technique first described by Patlak, Blasberg, and Fenstermacher. This an ...
# [4] = tested on: blood-brain barrier (BBB); set-up: method as in PMID 30044494; conditions: in vivo; cited from earlier work
substance,measurement,setting,value
125I-insulin: Human insulin (Sigma-Aldrich) radioactively labeled with Na125I by the chloramine-T method,Insulin transport rate Ki,"[1]; E3 Female, Cerebellum",1.189 µL/g/min
same,Reversible vascular binding (Vi),"[1]; E3 Female, Cerebellum",8.36 µL/g
same,Insulin transport rate Ki,"[1]; E3 Female, Frontal Cortex",0.796 µL/g/min
same,Reversible vascular binding (Vi),"[1]; E3 Female, Frontal Cortex",4.65 µL/g
same,Insulin transport rate Ki,"[1]; E3 Female, Hippocampus, ns = non-significant transport",ns
same,Insulin transport rate Ki,"[1]; E3 Female, Hypothalamus",1.541 µL/g/min
same,Reversible vascular binding (Vi),"[1]; E3 Male, Parietal Cortex",4.17 µL/g
same,Insulin transport rate Ki,"[1]; E3 Male, Pons/Medulla",0.739 µL/g/min
same,Insulin transport rate Ki,"[1]; E3 Male, Striatum, ns = non-significant transport",ns
same,Insulin transport rate Ki,"[1]; E3 Male, Thalamus, ns = non-significant transport",ns
same,Insulin transport rate Ki,"[1]; E4 Female, Cerebellum",2.110 µL/g/min
same,Reversible vascular binding (Vi),"[1]; E4 Female, Cerebellum",8.91 µL/g
same,Insulin transport rate Ki,"[1]; E4 Female, Frontal Cortex",0.720 µL/g/min
same,Reversible vascular binding (Vi),"[1]; E4 Female, Olfactory Bulb",11.71 µL/g
same,Insulin transport rate Ki,"[1]; E4 Female, Parietal Cortex",0.859 µL/g/min
same,Reversible vascular binding (Vi),"[1]; E4 Female, Parietal Cortex",3.31 µL/g
same,Insulin transport rate Ki,"[1]; E4 Female, Pons/Medulla",1.111 µL/g/min
same,Insulin transport rate Ki,"[1]; E4 Female, Striatum, ns = non-significant transport",ns
same,Insulin transport rate Ki,"[1]; E4 Female, Thalamus",0.634 µL/g/min
same,Insulin transport rate Ki,"[1]; E4 Male, Cerebellum, ns = non-significant transport",ns
same,Insulin transport rate Ki,"[1]; E4 Male, Frontal Cortex",1.023 µL/g/min
same,Reversible vascular binding (Vi),"[1]; E4 Male, Frontal Cortex",5.90 µL/g
same,Insulin transport rate Ki,"[1]; E4 Male, Hippocampus, ns = non-significant transport",ns
same,Insulin transport rate Ki,"[1]; E4 Male, Hypothalamus",2.272 µL/g/min
same,Reversible vascular binding (Vi),"[1]; E4 Male, Hypothalamus",5.63 µL/g
same,Insulin transport rate Ki,"[1]; E4 Male, Midbrain",0.887 µL/g/min
same,Reversible vascular binding (Vi),"[1]; E4 Male, Midbrain",6.38 µL/g
same,Insulin transport rate Ki,"[1]; E4 Male, Occipital Cortex",0.793 µL/g/min
same,Reversible vascular binding (Vi),"[1]; E4 Male, Occipital Cortex",6.71 µL/g
same,Insulin transport rate Ki,"[1]; E4 Male, Olfactory Bulb",1.712 µL/g/min
same,Reversible vascular binding (Vi),"[1]; E4 Male, Olfactory Bulb",13.31 µL/g
same,Insulin transport rate Ki,"[1]; E4 Male, Parietal Cortex",0.920 µL/g/min
same,Reversible vascular binding (Vi),"[1]; E4 Male, Parietal Cortex",4.74 µL/g
same,Insulin transport rate Ki,"[1]; E4 Male, Pons/Medulla, ns = non-significant transport",ns
same,Insulin transport rate Ki,"[1]; E4 Male, Striatum, ns = non-significant transport",ns
same,Insulin transport rate Ki,"[1]; E4 Male, Thalamus",1.203 µL/g/min
same,Reversible vascular binding (Vi),"[1]; E4 Male, Thalamus",4.56 µL/g
same,Ki (unidirectional influx from blood to brain),"[1]; Female E3, iv, albumin-corrected",1.128 ± 0.32 µL/g/min
same,Vi (reversible vascular binding),"[1]; Female E3, y-intercept of multiple-time regression",4.41 ± 2.31 µL/g
same,Ki (unidirectional influx from blood to brain),[1]; Female E4,1.033 ± 0.28 µL/g/min
same,Vi (reversible vascular binding),"[1]; Female E4, y-intercept of multiple-time regression",7.17 ± 2.07 µL/g
same,Vi (reversible vascular binding),"[1]; Female, genotypes Combined",7.84 ± 1.26 µL/g
same,Ki (unidirectional influx from blood to brain),"[1]; Female, genotypes Combined",0.691 ± 0.16 µL/g/min
same,Vi (reversible vascular binding),"[1]; Male E3, y-intercept of multiple-time regression",7.17 ± 0.95 µL/g
same,Ki (unidirectional influx from blood to brain),[1]; Male E4,0.781 ± 0.32 µL/g/min
same,Vi (reversible vascular binding),"[1]; Male E4, y-intercept of multiple-time regression",8.23 ± 2.13 µL/g
same,Vi (reversible vascular binding),"[1]; Male, genotypes Combined",7.88 ± 1.09 µL/g
same,Ki (unidirectional influx from blood to brain),"[1]; Male, genotypes Combined",0.803 ± 0.17 µL/g/min
same,"Serum clearance rate, slower in males compared to females",[2],> 2 fold
same,"Whole brain transport rate, average previously observed",[3],0.71 ± 0.17 µL/g/min
same,Distribution between brain capillary and brain parenchyma,[4],enters the brain parenchyma

# — PMC6993976, “Insulin BBB pharmacokinetics in young apoE male and female transgenic mice” (PLoS ONE, 2020)
